Test results as given in the nanobody polyreactivity screen of Harvey et al. (2022).

Assay: yeast display, Sf9 membrane polyspecificity reagent, FACS + sequencing; frameworks hold sequencing errors
Procedure, shortened: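 Using colony PCR, genes from sorted yeast display clones were amplified, then sequenced on MiSeq at 2 × 250 and filtered by CDR length. The clones had been stained with 10% biotinylated, detergent-solubilized Sf9 membrane reagent for 1 hour at 4 °C and sorted by FACS into low and high (top ~1%) gates on anti-HA and streptavidin fluorescence. Polyreactivity labels come from the gate of origin.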

| Sequence | polyreactivity (PSR sort gate) |
| --- | --- |
| QVQLVESGGGLFQAGGSHRLSCAASGSTFYYKAMGWYRQAPGKESELVARISRSGGSTYADSVKGRFTISRDNAKNNVYLQMNSLKPEDTAVYYCNKRGFYTPSVSYDYWGQGTQVTVSS | low polyreactivity |
| QVQLVESGGGLFQAGGSLRLICAASGRIFDVNAMGWYRQAPGKERELVAAISWSGGITYYADSVKGRFTISRDNAKNTVYLQINSLKPEDTAVYYCAADKYQGYTFYQGYPGGGGYWGQGTQVTVSS | low polyreactivity |
| QVQLVESGGGLFQAGGSLRLNCAASGSIFGSYAMVWYIQAPGKELELVAAITSDGITNYADSVKGRFTISRDNEKNTDYLQMNSLKPEDTAVYYCAAPGPLGGSDYWGQGTQVTVSS | low polyreactivity |
| QVQLVESGGGLFQAGGSLRLSCAANGSIFDYYAMGWYRQSPGKERELVAAITRSGVRTYYADSVKGRFTISRDNAKNTVYLQMNSMKPEDTAVYYCGAVYYPLSFDNDYWGQGTQVTVSS | high polyreactivity |
| QVQLVESGGGLFQAGGSLRLSCAASGFIFLVNAMGWYRPAPGKERELVAAISKSTGGTYYADSVKGRFTISRDNAKNTVYLQMYSLKPEDTAVYSCAADEVYPVQRDMDYWGQGTQETVSS | low polyreactivity |
| QVQLVESGGGLFQAGGSLRLSCAASGFTFIYYAMGSYRQAPGKATELVSAITHSGGSTYYADSVKGRFTISRDNAKTTVSLQMNSLNPEDTAVYYCAARLTWSRYQKYRTSSWQSYYWGQGTQVTVSS | high polyreactivity |
| QVQLVESGGGLFQAGGSLRLSCAASGFTVRRYTMGWYRPATGKEREMVATISLSDGNTYYADSVKGRFTISRDNAKNTVYLQMNRLKAEDTAFYDCNAYSQSWNFYGDGDYWGQGTQVTVSS | low polyreactivity |
| QVQLVESGGGLFQAGGSLRLSCAASGGTFNFYAMGWYRQAPGKERELVARIDSGVSTNYADTVKGRFTISRDNAKNTVYLQMNSLKPEDTAVYYCNAERYRSRRYPYRYLYYYWGQGTQVTVSS | high polyreactivity |
| QVQLVESGGGLFQAGGSLRLSCAASGIIFRYYAMGWSRQAPGKEREFVASINFSGSSTYYADSVKGRFTISRDKAKNTVYLQMNSLKPEDTAVYYCAAGRRWLYDYWGQGTQVTVSS | high polyreactivity |
| QVQLVESGGGLFQAGGSLRLSCAASGLIFRAYAMVWYRQSPGKERELVADITRSGGRTYYADSVKGRFTISRDNAKNTVYLQMNSLKPEDTAVYYCAAYVYSYWFYRGYEYWGQGTQVTVSS | high polyreactivity |
| QVQLVESGGGLFQAGGSLRLSCAASGLTFYRYVMGWYRQAPGKERELVAAISDSGGSTYYADSVKGRFTISRDNAKNTVYLQMNSLKPEDTAVYYCAAEAPSFVYYSRYDYWGQGTQVTVSS | high polyreactivity |
| QVQLVESGGGLFQAGGSLRLSCAASGRIFGGYAMGWYRQAPGTERELVAAIDWDGGSTYYADSVKGRFTISRDNEKNTVYLQMNSLKPEDTAVYYSNAVKWTWWSSSGDYDYWGQGTQVTVSS | high polyreactivity |
| QVQLVESGGGLFQAGGSLRLSCAASGRIFQGYVMGRYRQAPGKERELVAVISRRGGITNYADSVKGRFTISSDNAKNSVYLQIYRLKPEDTAVYYCNSVTRVYNNGQYGYWGQGTQVTVSS | high polyreactivity |
| QVQLVESGGGLFQAGGSLRLSCAASGRIFVFYTMGWYRQAPGKERELVASINSGGSTYYADSVKGRFTISRDNAKNTVYLQMNSLKPEDTAVYYCAASRTRRGVRQFDYWGQGTQVTVSS | high polyreactivity |
| QVQLVESGGGLFQAGGSLRLSCAASGRIFYSNAMGWYRQAPGKERELVASISPNSGPTYYADSVKGRFTISRDNAKNTVYLQMNSLKPEVTAVYYCAARGGYYQDGLVTGVAEYGYCGQGTQVTVSS | low polyreactivity |
| QVQLVESGGGLFQAGGSLRLSCAASGRISYGNAMGWYRQAPGKEMELVAAISGSGGSKYYADSVKGRFTISRDNAKNTVYLQMNSLKPEDTAVYYCAADSRKRQGYGYWGQGTQVTVSS | low polyreactivity |
| QVQLVESGGGLFQAGGSLRLSCAASGRTFAYYTMGWYRQAPGKERELVAAITSSGGSTYYADSEKGRFTISRDNAKNTVYLQMNSLKPEDTAVYYCNAYGLRWASRLGYDYWGQGTQVTVSS | high polyreactivity |
| QVQLVESGGGLFQAGGSLRLSCAASGRTFISNPMGWYRQAPGKVWEMVASITSGGSTNYADSVKGRFTISRDNAKNSVYVHMYSQNREDTAVYYCAAEGLVVGWTEEDYWGQGTQVTVSS | low polyreactivity |
| QVQLVESGGGLFQAGGSLRLSCAASGRTITYYAMGWYRQAPGKERELVAAITWSGGSTYYADSVKGRFTISRDNAKNTVYLQMNSMKPEDTAVYYCAKEFYYSSGFDYWGQGTQVTVSS | low polyreactivity |
| QVQLVESGGGLFQAGGSLRLSCAASGSIFDVNVMGWYRQAPGKERELVASINISGASTYYADSVTGRFTISRDNAKNTVYLQMNSLKPEDTAVYYCAVTYGVPSFRYGYWGQVTQVTVSS | low polyreactivity |
| QVQLVESGGGLFQAGGSLRLSCAASGSIFFYNNMGWYRQAPGKERELVDAISASGGRTYYADSVKGRFTISRDNAKNSVYLQMYSLKPEDTAVYYCAVRVPYRGYTRYDYWGQGTQVTVSS | high polyreactivity |
| QVQLVESGGGLFQAGGSLRLSCAASGSIFNRYAMGWYRQAPGKERELVAAISSGGRTKYADSVKGRFTISRDNAKNTVYLQMNSLKPEDTAVYYCNAAYFLSGTCRTFDYWGQGTQVTVSS | high polyreactivity |

| Sequence | polyreactivity (PSR sort gate) |
| --- | --- |
| QVQLVESGGGLFQAGGSLRLSCAASGSIFQYYTMRWYRQAPGKERELVATINNNGGRTYYADSVKGRFTISRDNAMNSVYFQMYSLKPVDTAVYYCATDIWRYYRGWEDYWGQGTEVTVSS | high polyreactivity |
| QVQLVESGGGLFQAGGSLRLSCAASGSIFRDNVMVWYIHAPGKERELVAVITSGGSTNYADSVKGRFTISRDNAKNTVYLQMNSLKPEDTAVYYCNAAKTGSQSRLEYWGQGTQVTVSS | high polyreactivity |
| QVQLVESGGGLFQAGGSLRLSCAASGSIFSWNDMGWYRQAPGKERELVAAINWNGGSTYYADSVKGRFTISRDNEKNSVYLQMNSLKPEYSEVYYCAAERSLYYVYSREYWGQGTQVTVSS | low polyreactivity |
| QVQLVESGGGLFQAGGSLRLSCAASGSIFTPNTMGWYRKAPGKERELVAAITIRGGSTYYADSLKGRFTISRDNAKNTVYLQMNSLKPEDTAVYYCATEYALRYYLVDYWGQGTQVTVSS | low polyreactivity |
| QVQLVESGGGLFQAGGSLRLSCAASGSIINIYAMGWYRQAPGKERELVATITGIADSTYYADSVKGRFTISRDNAKNTVYLQMNSLKPEDTAVYYCAADKYVADYDYWGQGSQVTVSS | low polyreactivity |
| QVQLVESGGGLFQAGGSLRLSCAASGSTFWFNAMGWYRQAPGKERELVAAITSGDGTNYADSVKGRFTISRDNAKNTVYLQMNSLKPEVTAVYYCATVYADESGIEGYSWGQGTQVTVSS | low polyreactivity |
| QVQLVESGGGLFQAGGSLRLSCADSGSTFSLYAMGWDRQAPGKDRELVAAITWSGGSTYYADSEKGRFTISRDNAKTTVYLQMTSLPPEDTAVYYCAAHRIGYYLRVSYRGKYDHWGQGTQVTVSS | low polyreactivity |
| QVQLVESGGGLFQAGGSLRLSCAPSGRIFTTYAMGWYRQAPGKDRELVAAISRSGGSSYYADSVKGRFTISRDNAKNTVYLQMKSLKQEDTAVYFCAAVPTSNSFRSSFYNWGQGTQVTVSS | high polyreactivity |
| QVQLVESGGGLFQAGGSLRLSCAPSGRTFDYNAMGWYRQAPGKERELVAAISGSGTRTFYADSVKGRFTISRDNAKNTVYLQMNSLKPEDTAVYYCAASHGWSKSIFYYWGQGTQVTVSS | high polyreactivity |
| QVQLVESGGGLFQAGGSLRLSSAASGRIIRRNAMGWYRQAPGKEWDLDAAITSSGGNTYYADSVKGRFTISRDNAKNTVYLQMNSLKPEDSAVYYCATYPGNWDLDYWGQGTQVTVSS | high polyreactivity |
| QVQLVESGGGLFQAGGSLRLSSAASGTRYYAMGWYRPAPGKERELVAGIRWRDGGTYYADSVKGRFTISRDNAKNTFYLQLNSLKPEDTAVYYCNASVTSWYKRAGYYWGQGSQVTVSS | high polyreactivity |
| QVQLVESGGGLFQAGGSLRLTCAASGFTFIKYSMGWYRQAPGKEREFVATISWNGGNTYYADSVKGRFTISRDNAKNTVYLQMNSLKPEVTAVYYCAARVKYRTRGGTVVSYDYWGQGTQVTVSS | high polyreactivity |
| QVQLVESGGGLFQAGGSLRLTCAASGITFYYYAMGWYRQAPGKERELVAAISVRGTRTFYADCVKWRFTISRDNAKNTVYLQMNSLKPEDTEVYYCNKSVSNDDGLEYWGQGTQVTVSS | high polyreactivity |
| QVQLVESGGGLFQAGGSLSLSCAATGIIFRSYAMGWYRQAPGKEREMVAAITRSGGSTYADSVKGRFTISRDNAKNTVDLQMNSLKPEDTAVYYCAADRYSGWVYRRDYWGQGTQVTVSS | low polyreactivity |
| QVQLVESGGGLFQAGGTLRLSCAASGRIFVYYAMGWYRQAPGKERELVASITTGGRTYYADSVKGRFTISRDNAKNTVYLQMNSLKPEDTAVYYCAARKYSYTWYDYWGQGTQVTVSS | high polyreactivity |
| QVQLVESGGGLFQAGGTLRLSCASSGLIFSRYAMGWYRQSPGKEWELVAGISTSGGRTYYADSVKGRFTISRYNAKNTVYFQMNSLKPEDTAVYYCAAQFKYRQINSYLLGDYWGQGTQVTVSS | high polyreactivity |
| QVQLVESGGGLFQAGVSLRLSCAASGLIFYGNAMGWYRQAPGKERELVAAITGGGGNTYYADSVKGRFTISRYYAKITVYLQMNSLKPEDTAVYYCATATSTAYVRYYYWGQGTQVTVSS | high polyreactivity |
| QVQLVESGGGLFQEGGSLRLICAASGFTFSGYAMGWYRQAPGKERELVDAISSSGGSTYYADSVKGRFTISRDNAKNTVYLQMNSLKPEDTAVYYCYDRSRYYPGYSRFFYWGQGTQVTVSS | high polyreactivity |
| QVQLVESGGGLFQEGGSLRLSCAASGRIFYGYGMGWYRQAPGKERELVAAITWSGSRTYYADSVKGRFTISRDNAKNTVYVQMNSLKPEDTAVYYCAARIPSDGYYYWGQGTQVTVSS | high polyreactivity |
| QVQLVESGGGLGQAGGSLLLSCAASGSTFKYNAMGWNRKAPGKERELVPAISRGGRTNYADSVKGRFKISRDNAKNTVYLQMNSLKPEDTAVYYCAKDVAGLFHVGALYYYWGQGTQVTVSS | low polyreactivity |
| QVQLVESGGGLGQAGGSLRLSCAASGFIFTFYAMGWNRQAPGKERELVAAISWSGGSTYYADSVKGRFTISHDNAKNTVYLQMNSLKPEDTAVYSCNAQHARGYYYWGQGTQVTVSS | low polyreactivity |
